Source: patent publication US12296066B2, “Methods of wound healing with Serp-1 polypeptides” (ARIZONA BOARD OF REGENTS ON BEHALF OF ARIZONA STATE …, priority 2018, dated 2025)

Experiments:
[1] = tested on: full thickness dorsal skin wound; assay: full-thickness splinted excisional wound healing model, planimetric wound closure; format: in vivo, C57BL6/J mice
From the text: The mouse dermal wound healing splinted model was used for these studies where the contraction is held by a donut-shaped splint remains the most widely accepted and extensively used model to study skin wound healing in mice (Galiano et al., Wound Repair Regen. 12 (2004) 485-492. doi:10.1111/j.1067-1927.2004.12404.x, Wang et al., Nat. Protoc. 8 (2013) 302-309. doi:10.1038/nprot.2013.002, Dunn et al., J. Vis. Exp. (2013) 1-6. doi:10.3791/50265).
Mice (N=29 mice) were anesthetized by intraperitoneal injection of a cocktail of 120 mg/kg ketamine and 6 mg/kg xylazine, 0.1 ml/25 g bodyweight and prepped by shaving an area of approximately 1×1 inch spanning from between the ears to the peak of the spine, centered between each shoulder. The shaved area was sterilized by two washes with 2% chlorhexidine gluconate solution (Dyna-Hex 2®, Xttrium Laboratories) and 70% ethanol using cotton swabs.
A 3.5 mm punch biopsy was performed centered in the shaved area to create the full-thickness wound excision. Treatment or control as saline solution or chitosan-collagen hydrogel preparation were applied to the wound using a hand-held micropipette. In brief, 13 mice were given saline inoculation at the time of injury, 6 mice were given Serp-1 at the time of injury at doses or 1 or 2 μg. Six mice were given 1 μg of Serp-1 and followed by second bolus at 3 days post wounding. A second group of 6 mice were given Serp-1/chitosan treatment applied at the time of injury and 6 mice were given chitosan gel alone.
A donut-shaped silicon splint (O.D. 15 mm; I.D. 5.0 mm; Culture-Well™ Grace Biolabs) with Tegaderm™ (3M Company) affixed to one side was coated with cyanoacrylate glue (Krazy Glue®) on the opposite side and carefully placed on the back of the mouse with the biopsy site centered within the inner hole. Six interrupted sutures (4-0 black Ethilon monofilament with a FS-2 reverse cutting needle; Ethicon, Inc.) were placed around the outer edge of the splint to complete the procedure. Mice were allowed to recover and returned to single-housed cages for the remainder of the trial.
On the day of the procedure (Day 0) and on every subsequent day of follow-up, for a total of 15 days, mice were collected and wounds assessed while awake. Digital images were collected using a Google Pixel model 1 or 3XL smartphone camera. Planimetric measurements of wound healing progress was performed in Image)/FIJI and calibrated to known pixel-to-size measurements (Schindelin et al., Nat. Methods. 9 (2012) 676-682. doi:10.1038/nmeth.2019).
Serp-1 has proven to be an effective modulator of coagulation pathways and immune responses in numerous animal models of vascular injury and transplant. […] In this study, the efficacy of topical Serp-1 application was tested in a full-thickness excisional model of wound healing (FIG. 2A). A 3.5 mm biopsy punch was used to create a full thickness dorsal skin wound in C57BL6/J wildtype mice. Wounds were produced through the entirety of the dermis without puncturing the panniculus carnosus. In an initial analysis, Serp-1 was applied in saline solution and compared to control saline solution alone, given directly to the wound bed. A silicone splint with a gas-permeable Tegaderm layer was sutured over the bed. The silicone splint prevented wound contraction, allowing direct visualization and photography of wound re-epithelialization during the course of a 15-day healing period (FIG. 2B).

dermal collagen fibers = assay: quantitative collagen texture analysis, Masson's trichrome; format: in vivo, C57BL6/J mice; settings: 15 days wound healing
Method: (§1) Skin tissues were collected at day 1, 4, 7 and 15 and fixed in 10% neutral-buffered formalin for at least two days before tissue processing with a Leica TP1050 and embedded in paraffin with a Leica EG1160 embedding station. Blocks were serially sectioned using a Leica RM2165 microtome (4 μm sections) and stained with hematoxylin and eosin (H&E) by standard procedure. […]
Quantitative collagen texture analysis was performed in Image)/FIJI (Schindelin, Nat. […] Local thickness of collagen bundles was determined with the plugin “LocalThickness 4.0.2” using the methods described by Saito and Toriwaki (Saito, Pattern Recognit. 27 (1994) 1551-1565. doi:10.1016/0031-3203(94)90133-3), and by Hildebrand and Rüegsegger (Hildebrand, J. Microsc. 185 (1997) 67-75. doi:10.1046/j.1365-2818.1997.1340694.x.). Regularity of collagen bundles was determined with the plugin “Directionality” as previously reported (Sensini, Biofabrication. 9 (2017) 015025. doi:10.1088/1758-5090/aa6204).
During wound healing, collagen accumulation and organization are correlated with scar formation. […] Local scar thickness (FIG. 7C) and directionality (FIG. 7D) of collagen in scars were analyzed using ImageJ after Masson's trichrome staining under microscopic examination (20× magnification).

[2] = tested on: collagen bundles (Type 3 / Type 1); assay: Herovici's staining of collagen maturation in healed wounds; format: in vivo, C57BL6/J mice
From the text: (§2) Skin tissues were collected at day 1, 4, 7 and 15 and fixed in 10% neutral-buffered formalin for at least two days before tissue processing with a Leica TP1050 and embedded in paraffin with a Leica EG1160 embedding station. Blocks were serially sectioned using a Leica RM2165 microtome (4 μm sections) and stained with hematoxylin and eosin (H&E) by standard procedure. Sections were additionally stained by immunohistochemistry (IHC) for CD31 (Abcam, #ab28364, 1:100), Ly6G (Invitrogen, #14-5931-82, 1:100), and arginase-1 (Cell Signaling, #93668, 1:200), and with Masson's trichrome (Masson, J Tech Methods. 12 (1929) 75-90) and Herovici's polychrome (Herovici, Stain Technol. 38 (1963) 204-6, Levame and Meyer, Pathol. Biol. (Paris). 35 (1987) 1183-8) as special stains for collagen.
Collagens play a crucial role in angiogenesis during tissue regeneration. It is well known that collagen I a central factor allowing for endothelial cells to initiate precapillary cord formation. In contrast increased deposition of collagen III reduces the density of blood vessels at sites of wound healing (Davis, Circ. Res. (2005). doi:10.1161/01.RES.0000191547.64391.e3, O'Rourke, Adv. Wound Care. (2018). doi:10.1089/wound.2018.0827). […]

CD31-positive vessels = assay: CD31 immunohistochemistry of peri-wound vascularization; format: in vivo, C57BL6/J mice
From the text: as §1
(§3) Slides were imaged on an Olympus BX51 upright microscope equipped with an Olympus DP74 high-resolution camera operated by cellSens Dimensions v1.16. Images were collected as objective-calibrated TIFFs and subsequently analyzed and processed in Image)/FIJI (Schindelin et al., Nat. […] Positively stained cells were counted per high power field for each treatment group.
The blood vessels were analyzed by immunohistochemistry with antibodies against the endothelial marker CD31 (also called PECAM-1), a marker for endothelial cells commonly used to indicate wound bed blood vessels (Vanchinathan et al., Am. J. Clin. Pathol. (2015). doi:10.1309/AJCPRHM8CZH5EMFD). The number of positive staining vessels in different optical fields was quantified from four pairs of saline- and Serp-1-treated wounds. […]

[3] = tested on: Arg-1 positive macrophages; assay: Arginase-1 immunohistochemistry, M2 macrophage differentiation in wounds; format: in vivo, C57BL6/J mice
From the text: as §1, §3
Additionally the differentiation of M2 macrophages was =analyzed (FIG. 6C), during wound-healing (Kotwal and Chien, Macrophage differentiation in normal and accelerated wound healing, in: Results Probl. Cell Differ., 2017. doi:10.1007/978-3-319-54090-0_14), by IHC with antibodies against Arginase-1 (EC3.5.3.1). […]

Ly6G positive cells = assay: Ly6G immunohistochemistry, neutrophil infiltration in wounds; format: in vivo, C57BL6/J mice; settings: day 4; p=0.110
From the text: as §2
Slides were imaged on an Olympus BX51 upright microscope equipped with an Olympus DP74 high-resolution camera operated by cellSens Dimensions v1.16. Images were collected as objective-calibrated TIFFs and subsequently analyzed and processed in Image)/FIJI (Schindelin et al., Nat. Methods. 9 (2012) 676-682. doi:10.1038/nmeth.2019). Positively stained cells were counted per high power field for each treatment group.
Therefor neutrophil infiltration was analyzed at sites of wound healing with and without treatment with Serp-1 at day 4 by immunohistochemistry with antibodies against Ly6G (FIG. 6A).

[4] = intravenous bolus injections, patients with unstable angina; cited from earlier work

B1: Serp-1: Recombinant Serp-1 (m008.1L), secreted Myxomavirus glycoprotein serpin, expressed in CHO cells; SEQ ID NO: 1 (protein, listed as Homo sapiens)
chain: MKYLVLVLCLTSCACRDIGLWTFRYVYNESDNVVFSPYGLTSALSVLRIAAGGNTKREIDVPESVVEDSDAFLALRELFVDASVPLRPEFTAEFSSRFNTSVQRVTFNSENVKDVINSYVKDKTGGDVPRVLDASLDRDTKMLLLSSVRMKTSWRHVFDPSFTTDQPFYSGNVTYKVRMMNKIDTLKTETFTLRNVGYSVTELPYKRRQTAMLLVVPDDLGEIVRALDLSLVRFWIRNMRKDVCQVVMPKFSVESVLDLRDALQRLGVRDAFDPSRADFGQASPSNDLYVTKVLQTSKIEADERGTTASSDTAITLIPRNALTAIVANKPFMFLIYHKPTTTVLFMGTIT
wound closure earlier compared to saline group ([1]; 1.0 μg Serp-1, in the first week): four
wound closure ([1]; 1.0 μg/wound at day 0 and day 3, day 5): 40%
days less to achieve same degree of closure as control group at day 7 (or 2.0 μg at day 5) ([1]; 1.0 μg/wound/mouse, single dose, mean): 3 days
wound closure ([1]; 2.0 μg Serp-1, day 5): greater than 20%
wound closure ([1]; 2.0 μg Serp-1, day 7): 47%
wound healing accelerated by ([1]; 2 μg/mouse, single topical dose day 0, p<0.0001): approximately 3 days
day of healing equivalent to saline alone on Day 7 ([1]; Serp-1 [1+1]: 1 μg/mouse on Days 0 and 3 (FIG. 2C)): 3 days
faster closure rate ([1]; mouse model, conclusion): 40%
scarring ([1]; mouse model, conclusion): reduction in scarring
completeness of closure ([1]; repeated treatment group (1.0 μg day 0 + day 3), 15 days of observation): more completely closure than other groups
wound closure ([1]; single dose treatment groups, day 5): 30%
time to wound closure accelerated by, compared to saline ([1]; topical, doses of between 1 microgram and 2 micrograms, punch wounds on mouse back): 2 to 5 days
collagen bundle thickness (dermal collagen fibers): increased bundle thickness
collagen directionality (dermal collagen fibers): more organized directionality
ratio of collagen types in treated wound ([2]; Herovici's stain, FIG. 8): increasing the ratio of collagen III to collagen I
collagen maturation by Herovici's stain ([2]; day 15, versus saline-treated wounds): greater degree of maturation
number of vessels each image (CD31-positive) (CD31-positive vessels; day 7, peri-wound area, saline control 10.0±2.5): 36.3±4.9
appearance of CD31-positive vessels (CD31-positive vessels; day 7, versus saline alone): appreciably more “mature” CD31-positive vessels, with increased length and thickness
density of Arg-1 positive macrophages ([3]; day 4, compared to control wounds): significantly increased density
density of Arg-1 positive (M2) macrophages ([3]; day 7, compared to untreated wounds): significant higher
Ly6G positive cells in healing tissues (Ly6G positive cells): non significant trend toward an increase
safety [4]: proved safe
